Experimental findings from publication PMC3317646, “Interaction of Chandipura Virus N and P Proteins: Identification of Two Mutually Exclusive Domains of N Involved in Interaction with P” (PLoS ONE, 2012) are described below.

Sequences and labels used below:
B7: Chandipura virus phosphoprotein (P), wild-type, untagged, bacterially expressed (natural protein)
chain: MEDSQLYQALKNYPKLQDTLDSIENLEDDTKSEPSECGSPTERGIPSYYLAEELDECEEEDSEEDDDNLPTEIPDPPTVDMLEAIMEDEIDDTAYQVHFEAKQTWKPVIETGGNERGKFTLSVPQNLSALQLLQWETGIHALAERLGGCRLLQISTRGTRDGIEFTVRETPCVSPASDPIPSTSRSSSIASNVSTRQTESPGSKSNTSLGIPEAPANLIDMGAIDKEFILAAISPSDPPYKNTLRNLFGSGDSFEQYNQTGIYSLKELVIAGLKRKGIYNRIRIRCHLEPQFN
notes: Chandipura virus phosphoprotein P, wild-type (pET3a-P); also called CHPV P; pET3a-P; source: bacterially expressed, purified (Q-Sepharose anion exchange)

Where two headings read alike, the source gives them in different places.

Data set [1] concerns the molecule itself. Kind of data set: SEC; each purified protein alone on Superdex-200 / S-200 (10/300), 100 mM NaCl TET buffer; oligomerization status from the elution volume. Background: SEC sorts molecules by how far they enter the pores of the column.
Data set [2] deals with B7. Nature of the data set: SEC; N (or N(1–320)) pre-treated with 1% DOC for 30 min, then DOC removed by overnight dialysis against 100 mM NaCl TET buffer with or without equimolar P; S-200 (10/300); ratio by densitometry of bands. The settings on record: both partners purified.
Data set [3] concerns the molecule itself. Kind of data set: SEC; each purified protein alone on Superdex-200 / S-200 (10/300), 100 mM NaCl TET buffer; oligomerization status from the elution volume. This is another data set of the same source.
For data set [4], the target named is B7. Nature of the data set: SEC; equimolar N (or N(1–320)) and P incubated 30 min at 4°C in 100 mM NaCl TET buffer, no DOC treatment (N oligomeric); S-200 (10/300); ratio by densitometry of bands. The settings on record: both partners purified.
Data set [5] deals with T1, N-terminal six histidine tagged P protein of Chandipura virus (His-P) (Chandipura virus, UniProt P16380 1-293).
T1 construct: Chandipura virus phosphoprotein P, full length (pET20b-P); pET20b usually adds a C-terminal His tag (surmise); also called 6×His-P; pET20b-P; source: bacterially expressed, purified (Ni-NTA agarose); not shown: His6, N-terminal, kept
T1 sequence: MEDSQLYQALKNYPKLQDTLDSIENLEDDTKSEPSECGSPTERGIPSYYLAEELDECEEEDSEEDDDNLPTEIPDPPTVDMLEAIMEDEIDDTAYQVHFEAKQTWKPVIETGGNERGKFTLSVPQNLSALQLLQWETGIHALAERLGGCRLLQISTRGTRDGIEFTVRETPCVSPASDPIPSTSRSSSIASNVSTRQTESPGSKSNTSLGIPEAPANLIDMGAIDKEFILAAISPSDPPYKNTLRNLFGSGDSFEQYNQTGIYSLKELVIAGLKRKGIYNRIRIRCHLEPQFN
Kind of data set: pull-down; His-tag co-elution after 1% DOC treatment of the N variants and dialysis against the binding buffer in presence of His-P (N variants monomeric); Ni-NTA agarose, eluted with 250 mM imidazole. The note with it: both partners purified.

By stoichiometry N is commonly meant a count of units in the complex or per binding partner.

B1: N(1–47), bacterially expressed (domain or fragment)
chain: MSSQVFCISTGQTVSVCLPANEDPVEFPGAFFTPNAKKPTVYIKKET
notes: Chandipura virus nucleocapsid protein N, residues 1-47; source: E. coli BL21(DE3) or BL21(DE3)pLysS, purified (anion exchange, MonoQ 5/50 GL)
Regarding B1, the “stoichiometry N” value in data set [1] is 3.

B2: N(1–320), bacterially expressed (domain or fragment)
chain: MSSQVFCISTGQTVSVCLPANEDPVEFPGAFFTPNAKKPTVYIKKETDLSLLRSHVYDGIKDGSVTVSQINSYLYMVLKDIREKPDKNWTSFGVELGKKNEPMGIFDLLNVEDVKGKELDKKGQDTRLPGDDLWLPTLIFGLYRVSRATQVEYKKTLMTNLYAQCKLRTKDAEEIVDETAEFFNAWANDSNFTKIVAAVDMYFHHFKKSDHAPIRFGTIVSRFKDCAALSTLSHLQKVTGLPIEEVFTWVFNKSVQDDLLRMMTPGQEIDQADSYMPYLIDMGLSTKSPYSSTKNPSFHFWGQLTAFLVKSARAKNALVP
notes: Chandipura virus nucleocapsid protein N, residues 1-320; also called N(1–320)^0 (monomer after DOC treatment); source: E. coli BL21(DE3) or BL21(DE3)pLysS, purified (anion exchange, MonoQ 5/50 GL)
Turning to B2, the “stoichiometry N” value is 8 in data set [1] and 1 N(1–320):P in data set [2].

B3: N(22–422), bacterially expressed (domain or fragment)
chain: EDPVEFPGAFFTPNAKKPTVYIKKETDLSLLRSHVYDGIKDGSVTVSQINSYLYMVLKDIREKPDKNWTSFGVELGKKNEPMGIFDLLNVEDVKGKELDKKGQDTRLPGDDLWLPTLIFGLYRVSRATQVEYKKTLMTNLYAQCKLRTKDAEEIVDETAEFFNAWANDSNFTKIVAAVDMYFHHFKKSDHAPIRFGTIVSRFKDCAALSTLSHLQKVTGLPIEEVFTWVFNKSVQDDLLRMMTPGQEIDQADSYMPYLIDMGLSTKSPYSSTKNPSFHFWGQLTAFLVKSARAKNALVPVDIAYHELTTAALLFAYAIGRSSELEQRFVLNGKKFTKEKDSREDNDTTPPSERNVVVWLAWWEDIKHEITPDMKAFAKRAVERVGDIRVNSVAEYARKLFA
notes: source: E. coli BL21(DE3) or BL21(DE3)pLysS, purified (anion exchange, MonoQ 5/50 GL)
For the molecule B3, the “stoichiometry N” value in data set [1] came to 8.

B4: N(1/180–265/422), bacterially expressed (domain or fragment)
chain: MSSQVFCISTGQTVSVCLPANEDPVEFPGAFFTPNAKKPTVYIKKETDLSLLRSHVYDGIKDGSVTVSQINSYLYMVLKDIREKPDKNWTSFGVELGKKNEPMGIFDLLNVEDVKGKELDKKGQDTRLPGDDLWLPTLIFGLYRVSRATQVEYKKTLMTNLYAQCKLRTKDAEEIVDETAPGQEIDQADSYMPYLIDMGLSTKSPYSSTKNPSFHFWGQLTAFLVKSARAKNALVPVDIAYHELTTAALLFAYAIGRSSELEQRFVLNGKKFTKEKDSREDNDTTPPSERNVVVWLAWWEDIKHEITPDMKAFAKRAVERVGDIRVNSVAEYARKLFA
notes: also called middle deletant; source: E. coli BL21(DE3) or BL21(DE3)pLysS, purified (anion exchange, MonoQ 5/50 GL)
As for B4, the results for the “stoichiometry N” value in data set [1] and in data set [3] were 3 and 2, respectively.

B5: N(1–390), bacterially expressed (domain or fragment)
chain: MSSQVFCISTGQTVSVCLPANEDPVEFPGAFFTPNAKKPTVYIKKETDLSLLRSHVYDGIKDGSVTVSQINSYLYMVLKDIREKPDKNWTSFGVELGKKNEPMGIFDLLNVEDVKGKELDKKGQDTRLPGDDLWLPTLIFGLYRVSRATQVEYKKTLMTNLYAQCKLRTKDAEEIVDETAEFFNAWANDSNFTKIVAAVDMYFHHFKKSDHAPIRFGTIVSRFKDCAALSTLSHLQKVTGLPIEEVFTWVFNKSVQDDLLRMMTPGQEIDQADSYMPYLIDMGLSTKSPYSSTKNPSFHFWGQLTAFLVKSARAKNALVPVDIAYHELTTAALLFAYAIGRSSELEQRFVLNGKKFTKEKDSREDNDTTPPSERNVVVWLAWWEDIKHEI
notes: Chandipura virus nucleocapsid protein N, residues 1-390; source: E. coli BL21(DE3) or BL21(DE3)pLysS, purified (anion exchange, MonoQ 5/50 GL)
Take B5: the “stoichiometry N” value in data set [1] is 8.

B6: Chandipura virus nucleocapsid protein (N), wild-type, untagged, bacterially expressed (natural protein)
chain: MSSQVFCISTGQTVSVCLPANEDPVEFPGAFFTPNAKKPTVYIKKETDLSLLRSHVYDGIKDGSVTVSQINSYLYMVLKDIREKPDKNWTSFGVELGKKNEPMGIFDLLNVEDVKGKELDKKGQDTRLPGDDLWLPTLIFGLYRVSRATQVEYKKTLMTNLYAQCKLRTKDAEEIVDETAEFFNAWANDSNFTKIVAAVDMYFHHFKKSDHAPIRFGTIVSRFKDCAALSTLSHLQKVTGLPIEEVFTWVFNKSVQDDLLRMMTPGQEIDQADSYMPYLIDMGLSTKSPYSSTKNPSFHFWGQLTAFLVKSARAKNALVPVDIAYHELTTAALLFAYAIGRSSELEQRFVLNGKKFTKEKDSREDNDTTPPSERNVVVWLAWWEDIKHEITPDMKAFAKRAVERVGDIRVNSVAEYARKLFA
notes: Chandipura virus nucleocapsid protein N, full-length untagged (pET3a-NC); Oligomeric (nucleocapsid-like rings) as purified; monomeric after 1% DOC; also called CHPV N; wild-type N
Consider B6, for which the results for the “stoichiometry N” value in data set [3] and in data set [4] were about 10 and 2 N:P (molar ratio), respectively.
Take B7: the “stoichiometry N” value in data set [3] turned out to be 2.

B8: N(1–220), bacterially expressed (domain or fragment)
chain: MSSQVFCISTGQTVSVCLPANEDPVEFPGAFFTPNAKKPTVYIKKETDLSLLRSHVYDGIKDGSVTVSQINSYLYMVLKDIREKPDKNWTSFGVELGKKNEPMGIFDLLNVEDVKGKELDKKGQDTRLPGDDLWLPTLIFGLYRVSRATQVEYKKTLMTNLYAQCKLRTKDAEEIVDETAEFFNAWANDSNFTKIVAAVDMYFHHFKKSDHAPIRFGTIV
notes: Chandipura virus nucleocapsid protein N, residues 1-220; source: E. coli BL21(DE3) or BL21(DE3)pLysS, purified (anion exchange, MonoQ 5/50 GL)
B8: the “stoichiometry N” value in data set [1] amounted to 4. Moreover, the binding result in data set [5] is “binds”.
